Results from patent publication US20040002450A1, “Y17 - isolated molecules comprising epitopes containing sulfated moieties, antibodies to such epitopes, and uses thereof” (priority 2000, published 2004).

B1: Y17 scFv: second human scFv clone selected on platelets; SEQ ID NO: 203, heavy chain CDR3 SEQ ID NO: 20 (protein, listed as Homo sapiens)
scFv: MKYLLPTAAAGLLLLAAQPAMAEVQLVESGGGVVRPGGSLRLSCAASGFTFDDYGMSWVRQAPGKGLEWVSGINWNGGSTGYADSVKGRFTISRDNAKNSLYLQMNSLRAEDTAVYYCARLTHPYFWGQGTLVTVSRGGGGSGGGGSGGGGSSELTQDPAVSVALGQTVRITCQGDSLRSYYASWYQQKPGQAPVLVIYGKNNRPSGIPDRFSGSSSGNTASLTITGAQAEDEADYYCNSRDSSGNHVVFGGGTKLTVLGAAAEQKLISEEDLNGAA
B2: Y1-cys-kak: Y1 scFv with cysteine and lysine-alanine-lysine at the carboxyl end, forms a dimer; SEQ ID NO: 212 (protein)
scFv: MEVQLVESGGGVVRPGGSLRLSCAASGFTFDDYGMSWVRQAPGKGLEWVSGINWNGGSTGYADSVKGRFTISRDNAKNSLYLQMNSLRAEDTAVYYCARMRAPVIWGQGTLVTVSRGGGGSGGGGSGGGGSSELTQDPAVSVALGQTVRITCQGDSLRSYYASWYQQKPGQAPVLVIYGKNNRPSGIPDRFSGSSSGNTASLTITGAQAEDEADYYCNSRDSSGNHVVFGGGTKLTVLGGGGCKAK

How the values were obtained:
[1] = biological target: T1, platelet GPIbα (Homo sapiens, UniProt P07359); experiment: Western blot/FACS of endoprotease-cleaved platelet GPIbα and glycocalicin; type: binding
T1 construct: endogenous in cells; host or cells: washed human platelets (blood-bank platelet concentrate)
Text: (§1) Immunoblotting and endoprotease cleavage techniques were used to identify the epitope for Y1 on the surface membrane of platelets.
(§2) The enzyme O-Sialoglycoprotein endoprotease from Pasteurella haemolytica (Cedarlan CLE 100) selectively cleaves human platelet GPIb and specifically cleaves only proteins containing sialylated, O-linked glycans. […] This enzyme has been reported to cleave GPIb, which is heavily O-glycosylated, but not GPIIb-IIIa or other receptors on platelets. GPIbα was digested with O-Sialoglycoprotein endoprotease in order to further establish the binding of Y1 to the molecule.
(§3) Mocarhagin [Sigma L4515a] is a cobra venom metalloproteinase that cleaves platelet GPIbα specifically at a single site between residues glu-282 and asp-283, thereby generating two stable products: a ˜45-kDa N-terminal fragment (His1-Glu282), which is released into the supernatant, and a membrane-bound ˜95 kDa C-terminal fragment.
(§4) Cathepsin G (Sigma C4428), a neutrophil serine protease, cleaves glycocalicin at a first cleavage site between residues Leu-275 and Tyr-276 and at a second cleavage site between residues Val-296 and Lys-297. Cathepsin G treatment of glycocalicin generates two N-terminal fragments: a small N-terminal 42 kDa fragment (His1-Leu275), a large N-terminal 45 kDa N-terminal fragment (His1-Val-296), and corresponding ˜95 kDa C-terminal fragments. (FIG. 1).
(§5) For mocarhagin digestion, 10^8 washed platelets in TS buffer (0.01 M Tris, 0.15 M sodium chloride, pH 7.4) containing 1 mM calcium chloride were treated with 12 μg/ml mocarhagin (final concentration) for 1 hour at 22° C. and digestion was stopped by adding EDTA to 0.01 M.
(§6) 10^6 platelets in 0.1 M Tris buffer pH 7.4 containing 0.2% albumin and protease inhibitors (10 μM leupeptin, 0.24 mM PMSF) was incubated with 0.14 mg/ml O-Sialoglycoprotein endoprotease (final concentration) for 45 min at 37° C. and digestion was stopped by adding sample buffer and boiling. The sample buffer used contained 3% SDS, 12% glycerol, 50 mM Tris HCl, 2% β-mercaptoethanol, and 0.03% bromphenol blue.
(§7) For mocarhagin digestion, glycocalicin in TS buffer containing 1 mM calcium chloride was incubated with 10 μg/ml mocarhagin (final concentration) for 1 hour at 22° C. and digestion was stopped by adding EDTA to 0.01 M.
(§8) For cathepsin G digestion, glycocalicin in TS buffer containing 1 mM calcium chloride was incubated with 3.4 μg/ml cathepsin G (final concentration) for 4 hour at 22° C. and digestion was stopped by adding PMSF to 1 mM.

[2] = tested on: platelet GPIbα; experiment: as above; type: binding, human; conditions: immunoblots and FACS
Text: as §1, §2, §3, §4, §5, §6, §7, §8

[3] = tested on: platelet-rich-plasma (PRP); experiment: Ristocetin-induced aggregation of platelet-rich-plasma after scFv preincubation; type: cell-based, human
Method: The effect of Y1 (scFv) on aggregation of platelet-rich-plasma (PRP) was tested at various concentrations of Y1. PRP was pre-incubated with Y1 scFv, Y17 scFv, or a control sTM-1cFv for 4 min at 37° C. before being exposed to ristocetin, an inducer of platelet agglutination and aggregation. A reversible inhibitory effect was observed when scFv was added to PRP prior to the addition of ristocetin, and it was dose dependent.
Blood was collected into a tube containing 3.8% sodium citrate. Platelet-rich plasma was prepared by centrifugation at 250×g for 10 minutes.
(§9) For platelet aggregation studies, platelet rich plasma (PRP) and washed platelets were stirred at 500 rpm at 37° C. in whole blood Lumiaggregometer (Chronolog, Havertown, Pa.). The difference in light transmission through the platelet suspension and suspending medium was taken as 100% aggregation. The effect of Y1 on platelet aggregation was evaluated by addition of different concentration of Y1 before the addition of agonist, and the effect was recorded for four minutes.

[4] = tested on: washed platelets; experiment: Ristocetin-induced agglutination of washed platelets after scFv preincubation; type: cell-based, human
Method: Aggregation is determined in PRP due to the presence of thrombotic agents, while agglutination is determined in washed platelets. The effect of Y1 (scFv) on agglutination of washed platelets was tested at various concentrations of Y1. Platelets were pre-incubated with Y1 scFv, Y17 scFv, Y16-scFv, or a control TM-1 scFv for 4 min at 37° C. before being exposed to ristocetin, an inducer of platelet agglutination and aggregation.
Platelet concentrate in acid-citrate-dextrose (ACD) was obtained from a blood bank, platelets were isolated, washed once in buffer containing ACD and saline in a ratio of 1:7. The platelets were centrifuged at 800 g for 10 min after each wash and were resuspended in Tyrodes solution (2 mM MgCl2, 137 mM NaCl, 2.68 mM KCl, 3 mM NaH2PO4, 0.1% glucose, 5 mM Hepes and 0.35% albumin, pH 7.35) and count the number of cells.
as §9
The effect of Y17-scFv on vWF-dependent agglutination of platelets was tested at different concentrations of Y17.

[5] = biological target: T2, GPIb (glycocalicin) derived from platelets (Homo sapiens, UniProt P07359); experiment: ELISA to GC (glycocalicin), monomer versus dimer; type: binding
T2 construct: glycocalicin (soluble, extracellular fragment of GPIbα); from tissue; host or cells: human platelets
Method: An ELISA assay was performed to ascertain the differences in binding between the monomer (the Y1 scFv-also known as Y1-kak) and the dimer Y1-cys-kak (the cysteine dimer) for antigen GPIb (glycocalicin) derived from platelets. A polyclonal anti single chain antibody and/or a novel polyclonal anti-VL (derived from rabbits) and anti-rabbit HRP, were used to detect the binding to GPIb. […] For instance, to reach 0.8 OD units 12.8 μg/ml of monomer was used compared to only 0.1 μg/ml of dimer.
100 ml of purified glycocalicin was incubated in a 96 flat well maxisorp plates, overnight at 4 degrees celsius. The plate was washed with PBST (PBS+0.05% tween) 3 times, then […] of PBST-milk (PBST+2% Non fat milk), for 1 hr at room temperature. The plate was washed with PBST, and the monomer or dimer (100 ml) was added in PBST-milk at different concentrations for 1 hr at room temp. Then the plate was washed and anti-VL polyclonal (derived from immunized rabbits with VL derived from Y1) (1:100 diluted in PBST-milk) was added for an hour. The plate was washed and anti-rabbit HRP was added for an additional hour. The plate was washed 5 times and 100 μl TMB substrate was added for approximately 15 minutes then 100 μl of 0.5H2SO4 was added to stop the reaction. The optical density of the plate was measured at 450 nm in an ELISA reader.

| Molecule | binding to cathepsin G fragments of glycocalicin ([1]; Western blot) | binding after mocarhagin treatment of washed platelets ([1]; Western blot of platelet lysates) | binding to washed platelets after O-Sialoglycoprotein endoprotease [2] | effect on ristocetin-induced platelet aggregation in PRP (in words) ([3]; concentration not given) | % inhibition ([3]; scFv 38 μg/ml, PRP, ristocetin) [%] | % aggregation ([3]; scFv 38 μg/ml, PRP, ristocetin = 100%) [%] | effect on vWF-dependent platelet agglutination in washed platelets induced by ristocetin (in words) ([4]; final concentration of 10, 25 or 50 μg/ml) | % inhibition ([4]; scFv 25 μg/ml, washed platelets, ristocetin) [%] | % agglutination ([4]; scFv 25 μg/ml, washed platelets, ristocetin = 100%) [%] | activity relative to the monomer [5] | concentration used to reach 0.8 OD units [5] [µg/mL] |
| --- | --- | --- | --- | --- | --- | --- | --- | --- | --- | --- | --- |
| B1 | bound to the larger fragment (His1-Val-296), but not to the smaller fragment (His1-Leu275) | binding of Y17 to the N-terminal 45 kDa tryptic fragment | abolishes binding | did not inhibit | 0 | 100 | did not inhibit | 15 | 85 |  |  |
| B2 |  |  |  |  |  |  |  |  |  | approximately 100 fold | 0.1 |
